# Patent publication US20100310590A1
# Target: IgEs from a serum pool of patients allergic to birch pollen (RAST 3+ and 4+ to Bet v 2) (human)
# Assay: REAST inhibition: serum pool pre-incubated with inhibitor, IgE captured on anti-IgE plate, biotinylated Bet v 2 detection
row,Binder,percent inhibition of Bet v 2 wt binding to IgE at 1.45 ng inhibitor
1,SEQ ID NO:4 (protein) MSWQTYVDEHLMCDIDGQASNSLASAIVGHDGSVWAQSSSFPQFKPQEITGIMKDFEEPGHLAPTGLHLGGIKYMVIQGEAGAVIRGGEGSGGITIKKTGQALVFGIYEEPVTPGQCNMVVERLGDYLIDQGL,13.4%
2,SEQ ID NO:3 (protein) MSWQTYVDEHLMCDIDGQASNSLASAIVGHDGSVWAQSSSFPQFTPQEITGIMKDFEEPGHLAPTGLHLGGIKYMVIQGEAGAVIRGKKGSGGITIKKTGQALVFGIYEEPVTPGQCNMVVERLGDYLIDQGL,71%
3,SEQ ID NO:2 (protein) MSWQTYVDEHLMCDIDGQASNSLASAIVGHDGSVWAQSASFPQFKPQEITGIMKDFEEPGHLAPTGLHLGGIKYMVIQGEAGAVIRGKKGSGGITIKKTGQALVFGIYEEPVTPGQCNMVVERLGDYLIDQGL,40.4%

# Other lines, results leading:
row,percent inhibition of Bet v 2 wt binding to IgE at 1.45 ng inhibitor,Binder
1,82.6%,wild-type Bet v 2 allergen (SEQ ID NO:1) (protein) MSWQTYVDEHLMCDIDGQASNSLASAIVGHDGSVWAQSSSFPQFKPQEITGIMKDFEEPGHLAPTGLHLGGIKYMVIQGEAGAVIRGKKGSGGITIKKTGQALVFGIYEEPVTPGQCNMVVERLGDYLIDQGL
2,8.8%,SEQ ID NO:6 (protein) MSWQTYVDEHLMCDIDGQASNSLASAIVGHDGSVWAQSASFPQFKPQEITGIMKDFEEPGHLAPTGLHLGGIKYMVIQGEAGAVIRGGEGSGGITIKKTGQALVFGIYEEPVTPGQCNMVVERLGDYLIDQGL
